Experiment [1] addresses T1, HuCD100-Fc (in-house prepared) (human, UniProt Q92854 22-734, biotinylated in the Plexin binding and blocking assays (sites not given)). As to the kind of experiment: FACS blocking; HuPlexin-B1-HEK293, FIG. 12B.
The target of experiment [2] is T1, HuCD100-Fc (in-house prepared). As to the kind of experiment: FACS blocking; blocking of binding to HuPlexin-B1-HEK293.
The target of experiment [3] is T2, full-length human CD100 protein HuCD100 on cells (human, UniProt Q92854 22-862). Put plainly: FACS. On the technique in general: In flow cytometry, cells or beads pass a laser one at a time.
Experiment [4] deals with T3, MusCD100-Fc (mouse, UniProt O09126 24-733, biotinylated in the Plexin binding and blocking assays (sites not given)).
T3 chain: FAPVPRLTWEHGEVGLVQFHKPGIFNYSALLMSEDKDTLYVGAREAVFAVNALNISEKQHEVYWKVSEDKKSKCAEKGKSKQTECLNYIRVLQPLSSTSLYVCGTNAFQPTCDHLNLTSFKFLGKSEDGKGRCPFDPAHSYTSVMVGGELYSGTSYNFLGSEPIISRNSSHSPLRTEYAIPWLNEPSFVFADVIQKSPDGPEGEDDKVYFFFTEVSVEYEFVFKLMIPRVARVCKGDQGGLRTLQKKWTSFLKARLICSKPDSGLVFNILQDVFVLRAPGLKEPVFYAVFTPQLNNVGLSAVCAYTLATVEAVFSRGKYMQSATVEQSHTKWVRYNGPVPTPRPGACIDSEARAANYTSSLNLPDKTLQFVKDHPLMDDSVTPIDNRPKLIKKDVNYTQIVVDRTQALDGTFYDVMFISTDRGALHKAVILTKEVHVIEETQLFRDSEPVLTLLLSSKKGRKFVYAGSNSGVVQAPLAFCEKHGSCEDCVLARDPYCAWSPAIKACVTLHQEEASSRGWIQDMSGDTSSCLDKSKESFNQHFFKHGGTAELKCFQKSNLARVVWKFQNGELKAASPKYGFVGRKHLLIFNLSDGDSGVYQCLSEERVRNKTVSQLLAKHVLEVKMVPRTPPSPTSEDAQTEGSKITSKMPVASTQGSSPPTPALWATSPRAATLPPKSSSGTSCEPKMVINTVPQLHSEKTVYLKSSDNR
As to the kind of experiment: FACS blocking; MusPlexin-B1-HEK293, FIG. 12E.

In experiment [5] the target is T1, HuCD100-Fc (in-house prepared). Put plainly: FACS blocking; HuPlexin-B1-HEK293, FIG. 12A.
For experiment [6], the target named is T2, full-length human CD100 protein HuCD100 …. As to the kind of experiment: FACS. The source holds these as a separate data set.
Experiment [7] concerns the target T4, full-length mouse CD100 protein MusCD100 on cells (mouse, UniProt O09126 24-861).
T4 chain: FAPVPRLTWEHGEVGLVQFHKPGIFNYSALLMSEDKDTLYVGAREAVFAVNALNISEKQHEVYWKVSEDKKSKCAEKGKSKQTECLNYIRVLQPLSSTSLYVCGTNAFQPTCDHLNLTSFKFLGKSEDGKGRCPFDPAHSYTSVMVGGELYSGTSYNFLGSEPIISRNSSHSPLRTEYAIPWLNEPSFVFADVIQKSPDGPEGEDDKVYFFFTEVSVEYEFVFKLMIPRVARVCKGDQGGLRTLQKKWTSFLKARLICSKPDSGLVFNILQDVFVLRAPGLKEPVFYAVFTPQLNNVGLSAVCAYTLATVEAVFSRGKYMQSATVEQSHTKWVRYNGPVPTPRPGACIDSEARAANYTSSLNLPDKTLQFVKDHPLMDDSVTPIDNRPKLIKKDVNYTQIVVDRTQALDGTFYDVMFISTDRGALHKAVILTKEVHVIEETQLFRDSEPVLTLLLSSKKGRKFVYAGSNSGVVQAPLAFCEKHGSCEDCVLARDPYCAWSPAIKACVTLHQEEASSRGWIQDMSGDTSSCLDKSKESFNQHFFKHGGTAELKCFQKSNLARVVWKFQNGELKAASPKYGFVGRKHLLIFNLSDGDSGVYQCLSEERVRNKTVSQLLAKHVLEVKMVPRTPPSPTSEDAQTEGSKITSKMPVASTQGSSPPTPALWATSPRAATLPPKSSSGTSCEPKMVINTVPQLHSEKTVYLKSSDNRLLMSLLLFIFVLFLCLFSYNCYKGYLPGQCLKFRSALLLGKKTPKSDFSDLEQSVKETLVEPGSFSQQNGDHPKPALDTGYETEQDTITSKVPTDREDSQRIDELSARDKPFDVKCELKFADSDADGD
As to the kind of experiment: FACS.

The target of experiment [8] is T5, MusCD100-His (mouse, UniProt O09126 24-733).
T5 chain: T3 chain
As to the kind of experiment: ELISA; FIG. 5B. On the technique in general: An ELISA detects its analyte on a solid surface through an enzyme-linked reagent.

The target in experiment [9] is T2, full-length human CD100 protein HuCD100 …. Put plainly: FACS; HuPBMC cells.
For experiment [10], the target named is T1, HuCD100-Fc (in-house prepared). As to the kind of experiment: FACS blocking; HuPlexin-B2-HEK293, FIG. 12C.
For experiment [11], the target named is CynoCD100-His (cynomolgus monkey). As to the kind of experiment: ELISA.
For experiment [12], the target named is T5, MusCD100-His. Put plainly: ELISA; FIG. 5E.
For experiment [13], the target named is CynoCD100-His (cynomolgus monkey). Put plainly: ELISA; FIG. 5C.

B1: Pepinemab (antibody, V domains shown)
VH: QVQLVQSGAEVKKPGSSVKVSCKASGYSFSDYYMHWVRQAPGQGLEWMGQINPTTGGASYNQKFKGKATITVDKSTSTAYMELSSLRSEDTAVYYCARYYYGRHFDVWGQGTTVTVSS
VL: DIVMTQSPDSLAVSLGERATINCKASQSVDYDGDSYMNWYQQKPGQPPKLLIYAASNLESGVPDRFSGSGSGTDFTLTISSLQAEDVAVYYCQQSNEDPYTFGQGTKLEIK
In the case of B1, the 50% inhibitory concentration (IC50) is 1.31 nM in [1]; 3.56 nM in experiment [2]; 4.08 nM in [4]; 0.896 nM in experiment [5]; 1.45 nM in experiment [10]. The EC50 in experiment [3] was 0.138 nM; in experiment [6], 0.426 nM; in experiment [7], 0.307 nM; in experiment [8] it was 0.205 nM; in experiment [9], 0.479 nM; in [11], 0.0938 nM. Besides, the EC50 stood at 0.143 nM in [12] and 0.117 nM in experiment [13].

As usually defined, the IC50 is the point on the concentration scale where inhibition reaches its midpoint. A high value points to weaker potency in that assay. The term EC50 denotes the concentration giving half of the maximal effect. Low readings indicate greater potency, high ones weaker potency.

These data come from patent US20260028402A1 (published 2026).
